Experimental data reported in publication PMC6813330.

Target: IbpS (iron-binding protein secreted), translocated region of D. dadantii IbpS (residues 28-372) (Dickeya dadantii 3937)
Assay: SEC-MALS; Superdex S200 5/150 GL increase; 25 µl IbpS at 10 mg/ml in 50 mM Tris-Cl pH 7.0, 100 mM NaCl

**Q.** For “IbpS (iron-binding protein secreted), translocated region of D. dadantii IbpS (residues 28-372) (natural protein)”, which stoichiometry N is on record?
**A.** 2
